Results: publication PMC9103930

Key:
[1] = molecular target: Deinococcus grandis Dps tailless variant ∆N (lacking the first 46 residues) (Deinococcus grandis); experiment: SAXS; solution SAXS (batch and SEC-SAXS), 50 mM MOPS pH 7.0 with 50-480 mM NaCl (WT) or 50 and 230 mM NaCl (∆N); ab initio models (GASBOR, DAMMIN) with P23 symmetry set
[2] = molecular target: Deinococcus grandis Dps tailless variant ∆N (lacking the first 46 residues) (Deinococcus grandis); experiment: SEC + other: dynamic light scattering; Superdex 200 10/300 GL calibrated with protein standards, and DLS at 25 °C; 200 mM MOPS pH 7.0, 200 mM NaCl; WT also in 50 mM MOPS pH 7.0 with 50-480 mM NaCl; apparent molecular mass and hydrodynamic diameter of the oligomer
[3] = molecular target: Deinococcus grandis Dps, wild type (Deinococcus grandis); experiment: SAXS; solution SAXS (batch and SEC-SAXS), 50 mM MOPS pH 7.0 with 50-480 mM NaCl (WT) or 50 and 230 mM NaCl (∆N); ab initio models (GASBOR, DAMMIN) with P23 symmetry set

| Substance | stoichiometry N [1] | stoichiometry N [2] | stoichiometry N [3] |
| --- | --- | --- | --- |
| Deinococcus grandis Dps tailless variant ∆N (lacking the first 46 residues) (from UniProt A0A100HLL5 47-205) (domain or fragment) | 12 | 12 |  |
| Deinococcus grandis Dps, wild type (from UniProt A0A100HLL5 1-214) (natural protein) |  |  | 12 |
